Results on two substances are retold here after PMC2527131.

The target of the assay is BLyS receptors on human B cells (human (endogenous in peripheral blood B cells)).

“FLAG-tagged murine BLyS (from UniProt Q9WU72 127-309) (ligand)” displayed a nuclear localization of NF-κB p52 in human B cells after 48 h with 100 ng/ml BLyS (Western blot of nuclear extracts, three B cell preparations), fold over unstimulated B cells of 2.4 fold.
The same measure for “recombinant human FLAG-tagged BLyS (from UniProt Q9Y275 134-285) (ligand)”: 7.1 fold.
